According to patent US20180028641A1 (GlaxoSmithKline, published 2018):

Molecular target: T1, human transferrin hTF (Sigma T-4132) (human, UniProt P02787 20-698)
T1 construct: Bought protein
Assay: gel filtration (Superdex 200 PC 3.2/30) of each protein and of the mixture, fractions analysed by SDS-PAGE

T1 sequence (P02787 20-698 limits assumed): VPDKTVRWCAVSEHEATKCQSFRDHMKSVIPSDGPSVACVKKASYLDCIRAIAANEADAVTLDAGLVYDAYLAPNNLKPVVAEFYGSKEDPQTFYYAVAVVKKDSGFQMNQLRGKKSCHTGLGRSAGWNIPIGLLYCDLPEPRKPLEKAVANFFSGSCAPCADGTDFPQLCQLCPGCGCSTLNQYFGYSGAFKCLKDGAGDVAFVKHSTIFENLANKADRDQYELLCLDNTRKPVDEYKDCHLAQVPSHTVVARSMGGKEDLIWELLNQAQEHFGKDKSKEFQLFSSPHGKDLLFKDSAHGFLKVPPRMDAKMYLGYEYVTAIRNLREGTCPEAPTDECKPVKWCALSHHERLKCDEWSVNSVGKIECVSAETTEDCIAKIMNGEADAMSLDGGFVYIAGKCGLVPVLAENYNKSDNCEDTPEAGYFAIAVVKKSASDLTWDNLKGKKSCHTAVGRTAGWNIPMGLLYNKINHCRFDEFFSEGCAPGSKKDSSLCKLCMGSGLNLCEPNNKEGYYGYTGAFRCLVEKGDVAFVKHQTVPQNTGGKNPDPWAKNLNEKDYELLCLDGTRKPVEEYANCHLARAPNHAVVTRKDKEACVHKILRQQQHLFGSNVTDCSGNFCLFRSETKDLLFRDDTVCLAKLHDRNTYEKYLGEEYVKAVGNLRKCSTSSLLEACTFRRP

B1: recombinant NMB1870 (strain MC58, variant 1), His-tag fusion expressed in E. coli without the leader peptide (other)
chain: CSSGGGGVAADIGAGLADALTAPLDHKDKGLQSLTLDQSVRKNEKLKLAAQGAEKTYGNGDSLNTGKLKNDKVSRFDFIRQIEVDGQLITLESGEFQVYKQSHSALTAFQTEQIQDSEHSGKMVAKRQFRIGDIAGEHTSFDKLPEGGRATYRGTAFGSDDAGGKLTYTIDFAAKQGNGKIEHLKSPELNVDLAAADIKPDGKRHAVISGSVLYNQAEKGSYSLGIFGGKAQEVAGSAEVKTVNGIRHIGLAAKQ
notes: also called purified NMB1870; the recombinant protein; not shown: His-tag (pET-21b+ vector)
binding result: no binding (tested: 7 µM)
